Article PMC7913596, “Tribbles Pseudokinase 2 (TRIB2) Regulates Expression of Binding Partners in Bovine Granulosa Cells” (International Journal of Molecular Sciences, 2021)

T1: Tribbles pseudokinase 2 (TRIB2), AcGFP1 fusion in HEK 293 cells (pAcGFP1-TRIB2) (bovine, UniProt Q5GLH2 1-343)
T1 construct: bovine TRIB2 (NM_178317.3); also called TRIB2 bait plasmid; source: HEK 293, transfected, in lysate
T1 sequence (looked up): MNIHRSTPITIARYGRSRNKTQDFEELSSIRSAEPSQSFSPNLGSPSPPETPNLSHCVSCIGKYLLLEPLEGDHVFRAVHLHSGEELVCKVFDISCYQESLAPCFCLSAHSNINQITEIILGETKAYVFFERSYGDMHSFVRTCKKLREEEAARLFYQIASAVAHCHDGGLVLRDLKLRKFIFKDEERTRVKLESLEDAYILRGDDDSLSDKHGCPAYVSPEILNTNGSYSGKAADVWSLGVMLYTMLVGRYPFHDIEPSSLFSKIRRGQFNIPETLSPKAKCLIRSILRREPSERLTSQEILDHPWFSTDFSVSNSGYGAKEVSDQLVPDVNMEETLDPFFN


Legend:
[1] = target: pAcGFP1-53 (positive control bait) (UniProt P02340); experiment: co-IP; Matchmaker Co-IP system in co-transfected HEK 293 cells (pAcGFP1 bait, ProLabel prey); read-out by ProLabel enzyme complementation, luminescence (RLU); fold induction 60 min after substrate against the experimental control (pAcGFP1-TRIB2 and ProLabel-empty vector)
Chain of pAcGFP1-53 (positive control bait) (P02340 whole entry): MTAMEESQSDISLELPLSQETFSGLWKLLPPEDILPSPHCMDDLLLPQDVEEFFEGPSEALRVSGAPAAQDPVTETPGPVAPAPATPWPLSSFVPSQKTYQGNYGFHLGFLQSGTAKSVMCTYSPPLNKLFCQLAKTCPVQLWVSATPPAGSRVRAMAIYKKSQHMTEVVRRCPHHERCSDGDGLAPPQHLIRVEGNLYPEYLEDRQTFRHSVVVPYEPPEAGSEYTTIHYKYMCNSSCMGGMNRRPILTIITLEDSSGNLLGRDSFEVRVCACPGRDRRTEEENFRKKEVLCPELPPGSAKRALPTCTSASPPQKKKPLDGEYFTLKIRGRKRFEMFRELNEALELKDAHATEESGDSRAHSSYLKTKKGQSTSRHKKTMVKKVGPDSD

[2] = target: T1, Tribbles pseudokinase 2 (TRIB2), AcGFP1 …; experiment: as above; details: partners not purified

Molecule | fold induction of ProLabel enzymatic activity against the experimental control [1] [fold] | fold induction of ProLabel enzymatic activity against the experimental control [2] [fold]
ProLabel-T (positive control prey) (natural protein) | 4.7 | –
inhibin subunit beta A (INHBA), ProLabel prey in HEK 293 cells (natural protein, Bos taurus, UniProt P07995 21-425, looked up, Bos taurus inhibin subunit beta A; Seen at around 50 kDa after co-IP and at 44 kDa in extracts not subjected to co-IP; The insert may be the cDNA fragment found in the two-hybrid screen; source: HEK 293, transfected, in lysate) SPTPGSEGHSAAPDCPSCALATLPKDVPNSQPEMVEAVKKHILNMLHLKKRPDVTQPVPKAALLNAIRKLHVGKVGENGYVEIEDDIGRRAEMNELMEQTSEIITFAESGTARKTLHFEISKEGSDLSVVERAEIWLFLKVPKANRTRSKVTIRLFQQQKHLQGSLDAGEEAEEVGLKGEKSEMLISEKVVDARKSTWHIFPVSSCIQRLLDQGKSSLDIRIACEQCQETGASLVLLGKKKKKEEEGEGKKRDGEGGAGGDEEKEQSHRPFLMLQARQSEDHPHRRRRRGLECDGKVNICCKKQFFVSFKDIGWNDWIIAPSGYHANYCEGECPSHIAGTSGSSLSFHSTVINHYRMRGHSPFANLKSCCVPTKLRPMSMLYYDDGQNIIKKDIQNMIVEECGCS | – | 9.2
inositol polyphosphate phosphatase-like 1 (INPPL1), ProLabel prey in HEK 293 cells (natural protein, Bos taurus, UniProt E1BBJ7 1-1264, looked up, Bos taurus inositol polyphosphate phosphatase-like 1; Bands at around 50 kDa and 100 kDa after co-IP, around 160 kDa in extracts not subjected to co-IP; The insert may be the cDNA fragment found in the two-hybrid screen; also called SHIP2; SH2-containing inositol 5'-phosphatase 2; source: HEK 293, transfected, in lysate) MASACGAPGPGGAGPGAALGSPAPAWYHRDLSRAAAEELLARAGRDGSFLVRDSESVAGAFALCVLYQKHVHTYRILPDGEDFLAVQTSQGVPVRRFQTLGELISLYAQPNQGLVCALLLPVEREREPDPPDDRDASDGEDEKPPLPPRSGSTSISAPMGPSSPPAAPETPTTPAAESAPNGLSTVSHEYLKGSYGLDLEAVRGGASNLPHLTRTLATSCRRLHSEVDKVLSGLEILSKVFDQQSSPMVTRLLQQQNPPQTGEQELESLVLKLSVLKDFLSGIQKKALKALQDMSSTAPPAPLQPSTRKAKTIPVQAFEVKLDVTLGDLTKIGKSQKFTLSVDVEGGRLVLLRRQRDSQEDWTTFTHDRIRQLIKSQRVQNKLGVVFEKEKDRTQRKDFIFVSARKREAFCQLLQLMKNKHSKQDEPDMISIFIGTWNMGSVPPPKNVTSWFTSKGLGKTLDEVTVTIPHDIYVFGTQENSVGDREWLDLLRGGLKELTDLDYRPIAMQSLWNIKVAVLVKPEHENRISHVSTSSVKTGIANTLGNKGAVGVSFMFNGTSFGFVNCHLTSGNEKTARRNQNYLDILRLLTLGDRQLSAFDISLRFTHLFWFGDLNYRLDMDIQEILNYISRKEFEPLLRVDQLNLEREKHKVFLRFSEEEISFPPTYRYERGSRDTYAWHKQKPTGVRTNVPSWCDRILWKSYPETHIICNSYGCTDDIVTSDHSPVFGTFEVGVTSQFISKKGLSKTSDQAYIEFESIEAIVKTASRTKFFIEFYSTCLEEYKKSFENDAQSSDNINFLKVQWSSRQLPTLNPILADIEYLQDQHLLLTVKSMDGYESYGECVVALKSMIGSTAQQFLTFLSHRGEETGNIRGSMKVRVPTERLGTRERLYEWISIDKDEAGAKSKAPSVSRGSQDPRSGSRKPASTEASCPLSKLFEEPEKPPPTGRPPAPPRAAPREEPLTPRLKPEGAPELEGVVAPPPKNSFNNPAYYVLEGVPHQLLPPEPPSPARAPVPPATKNKVAITVPAPQLGRHRPPRAGEGSSSDEDSGGTLPPPDFPPPPLPDSAIFLPPGLDPLPGPVIRGRSGGEARGPPPPKAHPRPPLPPGPSPASTFLGDVASGDDRSCSVLQMAKTLSEVDYAPAGPGRAMLLPGPLELQPPRGLPSDYGRPLSFPPPRIRESIQEDLAEEAPCPQVGRAGGLGEAGMGAWLRAIGLERYEEGLVHNGWDDLEFLSDITEEDLEEAGVQDPAHKRLLLDTLQLSK | – | 2.3
